Reference: patent US20230272011A1 (AVACTA LIFE SCIENCES, published 2023)

Columns and labels:
mouse serum albumin = target: T1, mouse serum albumin (mouse, UniProt P07724 25-608); assay: BLI (Octet), biotinylated albumin on SA sensor, pH 6.0
T1 construct: also called MSA
Method: (§1) Biotinylated antigen was captured onto SA sensors at 1 μg/ml for 600 seconds in a buffer comprising PBS-T (0.01% Tween 20)+1% casein at either pH 6.0 or 7.4. Association was carried out for 300 seconds and dissociation for 600 seconds, and regeneration was performed using 10 mM glycine pH 1.5 (GE Healthcare) for 3×5 seconds. All steps were carried out at 1000 rpm and 25° C. Purified AFFIMER® polypeptide in two-fold serial dilutions was analyzed at a starting concentration of approximately 10× K_{D value}. Kinetics analyses were carried out using the Octet data analysis software, subtracting the reference sensor (loaded with antigen), aligning the Y-axis to baseline, and using inter-step correction to align association to dissociation. Savitzky-Golay filtering was applied and the data processed. Analysis of the data was carried out with a 1:1 model, global fit, Rₘₐₓ unlinked by sensor.

cynomolgus serum albumin [1] = target: T2, cynomolgus serum albumin (cynomolgus); assay: as above
T2 construct: also called CSA; cyno serum albumin
T2 sequence (A2V9Z4 25-608): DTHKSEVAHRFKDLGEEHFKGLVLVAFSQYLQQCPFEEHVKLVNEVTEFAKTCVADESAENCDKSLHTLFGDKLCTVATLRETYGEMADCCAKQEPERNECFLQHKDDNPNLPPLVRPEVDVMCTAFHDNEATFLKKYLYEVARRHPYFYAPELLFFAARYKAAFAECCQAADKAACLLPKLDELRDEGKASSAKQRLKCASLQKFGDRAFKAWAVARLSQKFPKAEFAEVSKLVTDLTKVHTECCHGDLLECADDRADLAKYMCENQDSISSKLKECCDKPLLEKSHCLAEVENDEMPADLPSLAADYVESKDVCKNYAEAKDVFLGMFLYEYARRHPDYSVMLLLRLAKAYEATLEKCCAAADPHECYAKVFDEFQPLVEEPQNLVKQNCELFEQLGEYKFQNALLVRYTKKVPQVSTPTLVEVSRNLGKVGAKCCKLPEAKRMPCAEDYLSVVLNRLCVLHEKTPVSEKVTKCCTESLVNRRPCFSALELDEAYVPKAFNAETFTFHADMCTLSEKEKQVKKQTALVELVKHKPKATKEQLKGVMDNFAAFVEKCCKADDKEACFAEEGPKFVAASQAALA
Method: as §1

human serum albumin [2] = target: T3, human serum albumin (human, UniProt P02768 25-609); assay: as above
T3 construct: mature; Bought protein; biotinylated in the Octet and HTRF assays; also called HSA; HuSA
Method: as §1

cynomolgus serum albumin [3] = target: T2, cynomolgus serum albumin; assay: BLI (Octet), biotinylated albumin on SA sensor, pH 7.4
Method: as §1

human serum albumin [4] = target: T3, human serum albumin; assay: as above
Method: as §1

human serum albumin [5] = target: T3, human serum albumin; assay: SPR (Biacore) binding response to HSA at pH 7.4, Affimer at 50 nM
From the text: (§2) Final clones were sequence-verified, produced from E. coli, and affinity purified as described in Example 3.

human serum albumin [6] = target: T3, human serum albumin; assay: SPR (Biacore) response to HSA, pH 7.4
From the text: as §2

[7] = target: T4, human PD-L1-Fc (R&D Systems) chimeric protein (human, UniProt Q9NZQ7 19-239); assay: binding ELISA on coated human PD-L1-Fc (table on the sheet is headed 'IC50 (nM)'; the text calls these values EC50)
T4 construct: Bought reagent; also called rhPD-L1-Fc; huPD-L1; Fc part of the bought chimera not given, not described
T4 sequence (Q9NZQ7 19-239, change not shown): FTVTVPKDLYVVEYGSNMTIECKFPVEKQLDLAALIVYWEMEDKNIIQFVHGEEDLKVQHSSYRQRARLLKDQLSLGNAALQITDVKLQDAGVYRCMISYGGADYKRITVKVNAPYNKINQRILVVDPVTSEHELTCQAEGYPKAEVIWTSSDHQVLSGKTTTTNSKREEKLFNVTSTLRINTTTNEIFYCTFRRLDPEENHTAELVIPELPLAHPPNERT
Method: Briefly, human PD-L1-Fc (R&D Systems) chimeric protein was coated on 96 well plates at […] in carbonate buffer. After saturation with 5% casein/PBS buffer, the plates were washed and a dilution of AFFIMER® polypeptides or controls were incubated for 90 minutes. Plates were then washed and a biotinylated polyclonal antibody anti-cystatin A (R&D Systems) was added for 1 hour. Plates were washed and AFFIMER® polypeptides were detected using streptavidin-HRP. After a last washing step, TMB was added for the development of the experiment and plates were read at 450 nm.

human serum albumin [8] = target: T3, human serum albumin; assay: binding ELISA on coated HSA, pH 7.4
Method: After saturation with 5% PBS Casein pH 7.5, plates were washed and a dilution of AFFIMER® polypeptides or controls were incubated for 90 minutes. Plates were then washed, and a biotinylated polyclonal antibody anti-cystatin A (R&D Systems) was added for 1 hour. Plates were washed and AFFIMER® polypeptides were detected using streptavidin-HRP. After a last washing step, TMB was added for the development of the experiment and the plates were read at 450 nm.

human serum albumin [9] = target: T3, human serum albumin; assay: SPR (Biacore), immobilised HSA, Affimer analyte
Method: Affinities for mouse, human, and cynomolgus serum were also measured at pH 7.4 for four (4) AFFIMER® binders using surface plasmon resonance (SPR) (FIG. 5, Table 5). […] A concentration titration of AFFIMER® monomers was run as analyte at a flow rate of 30 μl/min or 60 μl/min. Fc2-1, Fc3-1 and Fc4-1 kinetic data was blank subtracted and fit to a 1:1 Langmuir binding model (BIAcore Evalution software; GE) to calculate KD values. […]

[10] = target: T4, human PD-L1-Fc (R&D Systems) chimeric …; assay: binding ELISA on coated human PD-L1 Fc ('Anti-PD-L1 ELISA')
Method: Briefly, human PD-L1 Fc (R&D Systems) chimeric protein was coated onto 96 well plates at 0.5 μg/mL in carbonate buffer. After saturation with 5% casein/PBS buffer, plates were washed and a dilution of conjugated AFFIMER® polypeptide or unconjugated control were incubated for 90 minutes. Plates were then washed, a biotinylated polyclonal anti-cystatin A antibody (R&D Systems) added, and the plates incubated for 1 hour. Plates were washed and bound AFFIMER® polypeptide was detected using streptavidin-HRP. After a last washing step, TMB was added and the plate was read at 450 nm.

T1 sequence (P07724 25-608 limits assumed): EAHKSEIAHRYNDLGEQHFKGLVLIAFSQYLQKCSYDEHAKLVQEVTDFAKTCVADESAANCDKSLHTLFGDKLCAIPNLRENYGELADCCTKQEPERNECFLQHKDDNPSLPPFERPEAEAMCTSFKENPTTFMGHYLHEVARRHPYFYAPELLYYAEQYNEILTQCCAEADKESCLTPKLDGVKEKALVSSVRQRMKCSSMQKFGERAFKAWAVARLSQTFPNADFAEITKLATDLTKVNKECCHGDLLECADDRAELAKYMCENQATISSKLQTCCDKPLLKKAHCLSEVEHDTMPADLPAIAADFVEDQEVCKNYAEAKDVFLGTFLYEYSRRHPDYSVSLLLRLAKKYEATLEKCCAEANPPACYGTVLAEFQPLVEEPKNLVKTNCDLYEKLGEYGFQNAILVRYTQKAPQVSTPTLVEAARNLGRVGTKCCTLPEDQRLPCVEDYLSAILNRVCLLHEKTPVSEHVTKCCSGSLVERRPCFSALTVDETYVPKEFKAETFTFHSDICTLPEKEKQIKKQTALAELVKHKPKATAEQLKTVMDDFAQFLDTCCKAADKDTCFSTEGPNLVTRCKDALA

B1: HSA-37 (designed binder)
chain: MIPRGLSEAKPATPEIQEIVDKVKPQLEEKTNETYGKLEAVQYKTQVLAGFWASKWPGSTNYYIKVRAGDNKYMHLKVFNGPFTAVSKKDAADRVLTGYQVDKNKDDELTGFHHHHHH
Mouse serum albumin
  Kd: 834 nM
Cynomolgus serum albumin [1]
  Kd: 231 nM
Human serum albumin [2]
  Kd: 136 nM
Cynomolgus serum albumin [3]
  Kd: 221 nM
Human serum albumin [4]
  Kd: 113 nM

B2: HSA-22 (designed binder)
chain: MIPRGLSEAKPATPEIQEIVDKVKPQLEEKTNETYGKLEAVQYKTQVLANWYQQRWPGSTNYYIKVRAGDNKYMHLKVFNGPWHNYGESSGADRVLTGYQVDKNKDDELTGFHHHHHH
Mouse serum albumin
  Kd: 334 nM
Cynomolgus serum albumin [1]
  Kd: 146 nM
Human serum albumin [2]
  Kd: 44.7 nM
Cynomolgus serum albumin [3]
  Kd: 348 nM
Human serum albumin [4]
  Kd: 152 nM

B3: HSA-41 F51A (designed binder)
chain: MIPRGLSEAKPATPEIQEIVDKVKPQLEEKTNETYGKLEAVQYKTQVLANAFQRRWPGSTNYYIKVRAGDNKYMHLKVFNGPWKFRNTDRGADRVLTGYQVDKNKDDELTGFHHHHHH
Human serum albumin [5]
  binding response: 2.8
Human serum albumin [6]
  binding result: no binding (tested: 50 nM)

B4: HSA-41 F52A (designed binder)
chain: MIPRGLSEAKPATPEIQEIVDKVKPQLEEKTNETYGKLEAVQYKTQVLANFAQRRWPGSTNYYIKVRAGDNKYMHLKVFNGPWKFRNTDRGADRVLTGYQVDKNKDDELTGFHHHHHH
Human serum albumin [5]
  binding response: 2.2
Human serum albumin [6]
  binding result: no binding (tested: 50 nM)

B5: HSA-41 R55A (designed binder)
chain: MIPRGLSEAKPATPEIQEIVDKVKPQLEEKTNETYGKLEAVQYKTQVLANFFQRAWPGSTNYYIKVRAGDNKYMHLKVFNGPWKFRNTDRGADRVLTGYQVDKNKDDELTGFHHHHHH
Human serum albumin [5]
  binding response: 2.9
Human serum albumin [6]
  binding result: no binding (tested: 50 nM)

B6: HSA-41 W56A (designed binder)
chain: MIPRGLSEAKPATPEIQEIVDKVKPQLEEKTNETYGKLEAVQYKTQVLANFFQRRAPGSTNYYIKVRAGDNKYMHLKVFNGPWKFRNTDRGADRVLTGYQVDKNKDDELTGFHHHHHH
Human serum albumin [5]
  binding response: 2.6
Human serum albumin [6]
  binding result: no binding (tested: 50 nM)

B7: HSA-41 W83A (designed binder)
chain: MIPRGLSEAKPATPEIQEIVDKVKPQLEEKTNETYGKLEAVQYKTQVLANFFQRRWPGSTNYYIKVRAGDNKYMHLKVFNGPAKFRNTDRGADRVLTGYQVDKNKDDELTGFHHHHHH
Human serum albumin [5]
  binding response: 2.9
Human serum albumin [6]
  binding result: no binding (tested: 50 nM)

B8: AVA04-251 XT16 (designed binder)
chain: MIPRGLSEAKPATPEIQEIVDKVKPQLEEKTNETYGKLEAVQYKTQVLANFFQRRWPGSTNYYIKVRAGDNKYMHLKVFNGPWKFRNTDRGADRVLTGYQVDKNKDDELTGFAEAAAKEAAAKEAAAKEAAAKEAAAKEAAAKMIPRGLSEAKPATPEIQEIVDKVKPQLEEKTNETYGKLEAVQYKTQVLAREGRQDWVLSTNYYIKVRAGDNKYMHLKVFNGPWVPFPHQQLADRVLTGYQVDKNKDDELTGFAEAAAKEAAAKEAAAKEAAAKEAAAKEAAAKMIPRGLSEAKPATPEIQEIVDKVKPQLEEKTNETYGKLEAVQYKTQVLAREGRQDWVLSTNYYIKVRAGDNKYMHLKVFNGPWVPFPHQQLADRVLTGYQVDKNKDDELTGFHHHHHH
[7]
  EC50: 0.11 nM
Human serum albumin [8]
  EC50: 0.059 nM
Human serum albumin [9]
  Kd: 3.95 nM
  koff: 0.00324 s⁻¹
  kon: 821000 M⁻¹ s⁻¹

B9: AVA04-251 BH-800 (designed binder)
chain: MIPRGLSEAKPATPEIQEIVDKVKPQLEEKTNETYGKLEAVQYKTQVLAREGRQDWVLSTNYYIKVRAGDNKYMHLKVFNGPWVPFPHQQLADRVLTGYQVDKNKDDELTGFAEAAAKEAAAKEAAAKEAAAKEAAAKEAAAKMIPRGLSEAKPATPEIQEIVDKVKPQLEEKTNETYGKLEAVQYKTQVLAREGRQDWVLSTNYYIKVRAGDNKYMHLKVFNGPWVPFPHQQLADRVLTGYQVDKNKDDELTGFC
modifications: IRDye 800CW conjugated with maleimide chemistry (C-terminal cysteine construct)
notes: E. coli product
[10]
  EC50 (read off the curve): ~0.04 nM

B10: AVA04-251 BH-Cys (designed binder)
single chain: MIPRGLSEAKPATPEIQEIVDKVKPQLEEKTNETYGKLEAVQYKTQVLAREGRQDWVLSTNYYIKVRAGDNKYMHLKVFNGPWVPFPHQQLADRVLTGYQVDKNKDDELTGFAEAAAKEAAAKEAAAKEAAAKEAAAKEAAAKMIPRGLSEAKPATPEIQEIVDKVKPQLEEKTNETYGKLEAVQYKTQVLAREGRQDWVLSTNYYIKVRAGDNKYMHLKVFNGPWVPFPHQQLADRVLTGYQVDKNKDDELTGFC
[10]
  EC50 (read off the curve): ~0.04 nM

B11: AVA04-251 XT14-800 (designed binder)
chain: MIPRGLSEAKPATPEIQEIVDKVKPQLEEKTNETYGKLEAVQYKTQVLAREGRQDWVLSTNYYIKVRAGDNKYMHLKVFNGPWVPFPHQQLADRVLTGYQVDKNKDDELTGFAEAAAKEAAAKEAAAKEAAAKEAAAKEAAAKMIPRGLSEAKPATPEIQEIVDKVKPQLEEKTNETYGKLEAVQYKTQVLAREGRQDWVLSTNYYIKVRAGDNKYMHLKVFNGPWVPFPHQQLADRVLTGYQVDKNKDDELTGFAEAAAKEAAAKEAAAKEAAAKEAAAKEAAAKMIPRGLSEAKPATPEIQEIVDKVKPQLEEKTNETYGKLEAVQYKTQVLANFFQRRWPGSTNYYIKVRAGDNKYMHLKVFNGPWKFRNTDRGADRVLTGYQVDKNKDDELTGFC
modifications: IRDye 800CW conjugated with maleimide chemistry (C-terminal cysteine construct)
[10]
  EC50 (read off the curve): ~0.02 nM

B12: AVA04-251 XT14-Cys (designed binder)
single chain: MIPRGLSEAKPATPEIQEIVDKVKPQLEEKTNETYGKLEAVQYKTQVLAREGRQDWVLSTNYYIKVRAGDNKYMHLKVFNGPWVPFPHQQLADRVLTGYQVDKNKDDELTGFAEAAAKEAAAKEAAAKEAAAKEAAAKEAAAKMIPRGLSEAKPATPEIQEIVDKVKPQLEEKTNETYGKLEAVQYKTQVLAREGRQDWVLSTNYYIKVRAGDNKYMHLKVFNGPWVPFPHQQLADRVLTGYQVDKNKDDELTGFAEAAAKEAAAKEAAAKEAAAKEAAAKEAAAKMIPRGLSEAKPATPEIQEIVDKVKPQLEEKTNETYGKLEAVQYKTQVLANFFQRRWPGSTNYYIKVRAGDNKYMHLKVFNGPWKFRNTDRGADRVLTGYQVDKNKDDELTGFC
[10]
  EC50 (read off the curve): ~0.02 nM
